{
  "source": "paper doi:10.1101/2024.02.18.580885",
  "about": "(bioRxiv, 2024)",
  "biological_target": "the molecule itself",
  "assay": "dynamic light scattering",
  "data": [
    {"protein": "TFIP11 N-TER (N-terminal region of Tuftelin Interacting Protein 11) (domain or fragment, human, UniProt Q9UBB9 1-350, looked up) MSLSHLYRDGEGRIDDDDDERENFEITDWDLQNEFNPNRQRHWQTKEEATYGVWAERDSDDERPSFGGKRARDYSAPVNFISAGLKKGAAEEAELEDSDDEEKPVKQDDFPKDFGPRKLKTGGNFKPSQKGFAGGTKSFMDFGSWERHTKGIGQKLLQKMGYVPGRGLGKNAQGIINPIEAKQRKGKGAVGAYGSERTTQSMQDFPVVDSEEEAEEEFQKELSQWRKDPSGSKKKPKYSYKTVEELKAKGRISKKLTAPQKELSQVKVIDMTGREQKVYYSYSQISHKHNVPDDGLPLQSQQLPQSGKEAKAPGFALPELEHNLQLLIDLTEQEIIQNDRQLQYERDMVV", "values": [
      {"measurement": "binding result", "result": "binds"}
    ]}
  ]
}
